Measured values as given in paper doi:10.1101/2023.07.22.550149.

Tests used:
Assay in all cases: cryo-EM structure
[1] = target: H. catenoides kalium channelrhodopsin (HcKCR1), wildtype (Hyphochytrium catenoides)
[2] = target: higher potassium selective channelrhodopsin (B1ChR2) from Bilabrum sp (Bilabrum sp)
[3] = target: sodium selective channelrhodopsin HcCCR from H. catenoides (Hyphochytrium catenoides)

Substance: H. catenoides kalium channelrhodopsin (HcKCR1), wildtype (natural protein)
- stoichiometry N [1]: 3

Substance: higher potassium selective channelrhodopsin (B1ChR2) from Bilabrum sp (natural protein)
- stoichiometry N [2]: 3

Substance: sodium selective channelrhodopsin HcCCR from H. catenoides (natural protein)
- stoichiometry N [3]: 3
